In PMC3411732, “Binding of the Heterogeneous Ribonucleoprotein K (hnRNP K) to the Epstein-Barr Virus Nuclear Antigen 2 (EBNA2) Enhances Viral LMP2A Expression” (PLoS ONE, 2012):

Target: T1, EBNA2-wt, transiently expressed in HEK 293-T cells (Epstein-Barr virus, UniProt P12978 1-487, arginines of the RG-repeat (aa 339–354) symmetrically or asymmetrically di-methylated (SDMA or ADMA))
T1 sequence (looked up): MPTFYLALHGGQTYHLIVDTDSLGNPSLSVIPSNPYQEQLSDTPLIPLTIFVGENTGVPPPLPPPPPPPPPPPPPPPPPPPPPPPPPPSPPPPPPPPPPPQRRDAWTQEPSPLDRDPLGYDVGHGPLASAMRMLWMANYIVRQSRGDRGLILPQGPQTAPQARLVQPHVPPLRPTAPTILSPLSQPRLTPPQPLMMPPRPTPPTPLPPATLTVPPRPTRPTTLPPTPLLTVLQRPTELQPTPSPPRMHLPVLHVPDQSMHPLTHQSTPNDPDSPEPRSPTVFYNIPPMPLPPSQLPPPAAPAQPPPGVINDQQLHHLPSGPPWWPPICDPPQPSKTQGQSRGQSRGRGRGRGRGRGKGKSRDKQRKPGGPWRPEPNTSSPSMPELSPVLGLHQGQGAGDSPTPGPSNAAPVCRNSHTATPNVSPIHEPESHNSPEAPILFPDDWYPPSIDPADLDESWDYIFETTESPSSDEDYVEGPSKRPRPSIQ
Experiment: cell-based or functional assay

B1: GFP-hnRNP K (wild type), expressed in 293T cells (natural protein)
chain: not shown
- LMP2A promoter luciferase reporter in DG75 cells; co-expression of hnRNP K-wt (pSG5-HA-hnRNP K) with EBNA2-wt (pSG5-EBNA2): ≤ 3 fold
